Consider two molecules from patent US20230227559A1 (INSTITUT PASTEUR, published 2023).

Positions count from the first letter of the chain named. In names and notes the source's numbering stands.

Experiment [1] has as its target T1, His-tagged ectodomains of hFcγRIIIA variant V158 (human, UniProt P08637 19-208).
T1 construct: also called human CD16A V158 ectodomains; hFcγRIIIA (V158 variant); not shown: His tag
Nature of the experiment: SPR (ProteON), His-tagged hFcγRIIIA V158 ectodomains on chip, mAb injected. The procedure:
Surface Plasmon Resonance analysis. His-tagged ectodomains of hFcγRIIIA variant V158 were covalently immobilized on a His-tag capture sensor chip for a ProteON instrument (BioRad). A range of dilutions of anti-hFcγRIII mAbs were injected onto the chip. Background binding was measured on an empty HTE sensor chip channel and subtracted from the binding values observed on coated channels. The resulting sensorgrams were fitted using a “1:1 binding with mass transfer” model, and association (Kₒₙ), dissociation (Koff) constants and KD were calculated as the […] using BIAevaluation 4.1 software.
The affinity of the antibodies of the invention for the hFcγRIIIA (V158 variant) has been assessed by SPR as detailed above.

For the next experiment, the target named is T2, hFcgRIIA H131 (human, UniProt P12318).
T2 construct: on the cell surface of CHO transfectants, FLAG tagged; Named only on the sheet; one member of the group m10; also called hFcγRIIA H131; CD32A H131
T2 sequence (receptor chain, looked up): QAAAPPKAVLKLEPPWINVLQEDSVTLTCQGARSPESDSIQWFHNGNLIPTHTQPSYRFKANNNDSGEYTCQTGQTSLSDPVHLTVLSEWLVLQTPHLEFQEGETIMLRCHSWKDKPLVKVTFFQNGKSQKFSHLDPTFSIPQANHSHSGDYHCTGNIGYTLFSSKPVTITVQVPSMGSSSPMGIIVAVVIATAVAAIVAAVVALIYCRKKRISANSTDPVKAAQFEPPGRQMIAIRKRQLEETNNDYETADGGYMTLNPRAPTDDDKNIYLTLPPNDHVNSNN
Nature of the experiment: FACS on CHO cells expressing FLAG tagged hFcγRIIA H131; mAb at 1 µg/ml, PE-labelled F(ab')2 donkey anti-human IgG at 5 µg/ml. As to the method: (§1) Specificity. A collection of Chinese Hamster Ovarian (CHO) cells expressing FLAG tagged human FcγR (Bruhns P. et al, 2009) was used to analyze the specificity of the antibody against the hFcγR family. Cells were incubated on ice for 30 min with mAbs at 1 μg/ml, washed 3 time in PBS containing 0.5% BSA and 2 mM EDTA (MACS buffer) and then incubated on ice for 30 min with 5 μg/ml PE-labelled F(ab′)₂ Donkey Anti-Human IgG (Jackson ImmunoResearch). Data acquisition was performed on a MACSQuant flow cytometer (Miltenyi Biotec), and data analyzed using the Flowjo Software (FlowJo).
(§2) The specificity of the chimeric modified antibody 3G4NA towards the members of the hFcγR family has been assessed as exposed in the Material & Methods part, in CHO cells expressing FLAG tagged human FcγR. The cells were incubated with 3G4NA mAbs at 1 μg/ml, washed and then incubated on ice for 30 min with 5 μg/ml PE-labelled F(ab′)₂ Donkey Anti-Human IgG. The FACS results are disclosed on FIG. 1.

The next experiment addresses T3, hFcgRIIA R131 (human, UniProt P12318).
T3 construct: on the cell surface of CHO transfectants, FLAG tagged; Named only on the sheet; one member of the group m10; also called hFcγRIIA R131; CD32A R131
T3 sequence (receptor chain, looked up): T2 sequence (receptor chain, looked up) with H134R
As to the kind of experiment: FACS on CHO cells expressing FLAG tagged hFcγRIIA R131; mAb at 1 µg/ml, PE-labelled F(ab')2 donkey anti-human IgG at 5 µg/ml. As to the method:
as §1, §2

Experiment [2] deals with T4, hFcγRIIIA V158 (FLAG tagged, expressed on CHO cells) (human, UniProt P08637 17-254).
T4 construct: whole, on cells; also called CD16A V158
T4 sequence (P08637 17-254 F176V limits assumed): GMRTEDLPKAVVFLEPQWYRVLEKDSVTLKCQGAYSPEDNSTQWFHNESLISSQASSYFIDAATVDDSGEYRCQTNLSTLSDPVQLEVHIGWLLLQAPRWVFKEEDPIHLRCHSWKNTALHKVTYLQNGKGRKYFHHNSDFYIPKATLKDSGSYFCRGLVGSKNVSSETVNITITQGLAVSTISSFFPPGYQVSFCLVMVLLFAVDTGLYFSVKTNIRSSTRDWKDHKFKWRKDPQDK
As to the kind of experiment: FACS on CHO cells expressing FLAG tagged hFcγRIIIA V176 (V158 in the text); mAb at 1 µg/ml, PE-labelled F(ab')2 donkey anti-human IgG at 5 µg/ml. The procedure:
as §1, §2

Another experiment deals with T5, hFcgRIIB (human, UniProt P31994).
T5 construct: on the cell surface of CHO transfectants, FLAG tagged; Named only on the sheet; one member of the group m10; also called hFcγRIIB; CD32B
T5 sequence (receptor chain, looked up): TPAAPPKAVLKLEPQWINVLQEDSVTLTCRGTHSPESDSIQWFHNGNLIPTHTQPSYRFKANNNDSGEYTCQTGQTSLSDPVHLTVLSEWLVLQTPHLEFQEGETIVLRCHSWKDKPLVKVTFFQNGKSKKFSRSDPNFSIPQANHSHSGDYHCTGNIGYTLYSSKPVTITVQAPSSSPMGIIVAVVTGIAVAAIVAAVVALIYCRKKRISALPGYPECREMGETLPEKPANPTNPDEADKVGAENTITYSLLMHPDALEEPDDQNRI
Nature of the experiment: FACS on CHO cells expressing FLAG tagged hFcγRIIB; mAb at 1 µg/ml, PE-labelled F(ab')2 donkey anti-human IgG at 5 µg/ml. The procedure: as §1, §2

For the next experiment, the target named is T6, hFcgRIIIA F176 (human, UniProt P08637).
T6 construct: on the cell surface of CHO transfectants, FLAG tagged; also called hFcγRIIIA F158; CD16A F158
T6 sequence (P08637 17-254 limits assumed): as the sequence (P08637 17-254 F176V limits assumed) above, with V160F counted along it
As to the kind of experiment: FACS on CHO cells expressing FLAG tagged hFcγRIIIA F176; mAb at 1 µg/ml, PE-labelled F(ab')2 donkey anti-human IgG at 5 µg/ml. The procedure:
as §1, §2

In experiment [3] the target is T7, hFcγRI (FLAG tagged, expressed on CHO cells) (human, UniProt P12314 16-374).
T7 construct: whole, on cells; also called CD64
T7 sequence (P12314 16-374): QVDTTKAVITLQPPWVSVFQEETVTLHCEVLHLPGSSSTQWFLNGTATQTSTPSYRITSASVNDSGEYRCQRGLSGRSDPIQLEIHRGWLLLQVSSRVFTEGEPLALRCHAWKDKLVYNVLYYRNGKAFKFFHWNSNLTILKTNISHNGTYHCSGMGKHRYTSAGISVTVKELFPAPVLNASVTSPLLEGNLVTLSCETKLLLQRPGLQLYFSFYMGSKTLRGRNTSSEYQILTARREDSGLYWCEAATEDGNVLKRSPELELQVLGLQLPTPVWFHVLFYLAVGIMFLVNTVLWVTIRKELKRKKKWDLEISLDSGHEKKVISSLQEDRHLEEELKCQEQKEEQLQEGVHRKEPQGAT
Nature of the experiment: FACS on CHO cells expressing FLAG tagged hFcγRI; mAb at 1 µg/ml, PE-labelled F(ab')2 donkey anti-human IgG at 5 µg/ml. As to the method: as §1, §2

T1 sequence (P08637 other isoform, or with tags, fused parts or gaps mutant): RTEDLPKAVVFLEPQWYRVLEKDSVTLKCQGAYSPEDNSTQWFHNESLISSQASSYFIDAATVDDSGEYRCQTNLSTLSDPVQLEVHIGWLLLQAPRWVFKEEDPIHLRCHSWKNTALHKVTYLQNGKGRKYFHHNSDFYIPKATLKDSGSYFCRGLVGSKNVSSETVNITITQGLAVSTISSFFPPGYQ

B1: Chimeric 3G4 hIgG1 (chimeric mouse-human IgG1 kappa anti-hFcγRIII mAb, clone 3G4) (antibody)
heavy: not shown
light: DIVLTQSPSSISASLGDRITITCQATQDIIKNLNWYQQKPGKPPSFLIYYATEVAEGVPSRFSGSGSGSDYSLTISNLESEDFADYYCLQFYEFPYTFGGGTKLEIKRTVAAPSVFIFPPSDEQLKSGTASVVCLLNNFYPREAKVQWKVDNALQSGNSQESVTEQDSKDSTYSLSSTLTLSKADYEKHKVYACEVTHQGLSSPVTKSFNRGEC
notes: also called mouse-human 3G4; 3G4 mouse-human chimeric monoclonal antibody
In experiment [1], B1 registered a Kd of 7.9 nM, a koff of 0.001 s⁻¹ and a kon of 130000 M⁻¹ s⁻¹.

B2: Chimeric 3G4 hIgG1 N297A format (chimeric modified mouse-human antibody 3G4NA) (antibody)
heavy: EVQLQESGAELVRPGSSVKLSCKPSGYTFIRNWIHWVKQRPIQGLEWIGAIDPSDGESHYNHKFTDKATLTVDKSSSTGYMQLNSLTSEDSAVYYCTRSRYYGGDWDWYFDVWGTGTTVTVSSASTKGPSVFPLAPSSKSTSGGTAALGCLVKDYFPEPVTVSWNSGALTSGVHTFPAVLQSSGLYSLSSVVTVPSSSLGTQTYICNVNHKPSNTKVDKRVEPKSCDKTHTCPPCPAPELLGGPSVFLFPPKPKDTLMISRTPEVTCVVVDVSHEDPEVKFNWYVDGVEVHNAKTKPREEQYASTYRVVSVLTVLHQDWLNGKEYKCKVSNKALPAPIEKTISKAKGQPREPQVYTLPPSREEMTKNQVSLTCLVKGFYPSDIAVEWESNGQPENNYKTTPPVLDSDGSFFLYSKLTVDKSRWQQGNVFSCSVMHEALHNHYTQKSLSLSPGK
light: B1 light
notes: also called 3G4N297A; mAb 3G4 N297A
As to B2, the binding result with hFcgRIIA H131 is on record as “no binding (tested: 1 µg/ml)”; with hFcgRIIA R131, “no binding (tested: 1 µg/ml)”; in experiment [2] it was “binds”; in the experiment with hFcgRIIB, “no binding (tested: 1 µg/ml)”; in the experiment with hFcgRIIIA F176 it was “binds”; in experiment [3], “binds”. Binding in experiment [1] was put at a Kd of 16 nM. In addition, in experiment [1], the koff came out at 0.00034 s⁻¹. Also, the kon in experiment [1] was determined as 19000 M⁻¹ s⁻¹.

What is called Kd is the equilibrium constant for the complex coming apart. As usually defined, the koff is the rate constant with which the complex falls apart. What is called kon is the second-order rate constant of association.
